Reference: patent US20090124537A1
Values belong to the binder of their own block, whether it stands above or below them. Bridges are numbered along the chain shown (N, C = ends). Where no end group is shown, it is not given here.

Tests used:
[1] = target: BMP-7 receptor of ROS cell plasma membrane fraction (ROS cell type II BMP receptor) (rat); assay: cell-based or functional assay
[2] = target: BMP-7 receptor of ROS cell plasma membrane fraction (ROS cell type II BMP receptor) (rat); assay: radioligand receptor assay, displacement of 125I-BMP-7 from ROS cell plasma membranes
[3] = target: BMP-7 receptor of ROS cell plasma membrane fraction (ROS cell type II BMP receptor) (rat); assay: radioligand receptor assay, 125I-BMP-7 on ROS cell plasma membranes

- 50% inhibition of the cell responsive to BMP-7 (ROS cell alkaline phosphatase assay) [1]: 10 µM
- concentration required to inhibit the binding of 125I-labeled BMP-7 [2]: 179 µM
Binder: CFRDLGWQDWIIAPC (disulfide 1-15 (inferred)) [F1-2]

- potentiation of BMP-7 induced cell responsiveness at 0.6-60 µM peptide (ROS cell alkaline phosphatase assay) [1]: 20%
- IC50 [2]: 1000 nM
Binder: CYFDDSSNVIC (disulfide 1-11 (inferred)) [F2-2]

- 50% inhibition of cellular responsiveness to BMP-7 (ROS cell alkaline phosphatase assay) [1]: 5 µM
- peptide concentration that potentiated the binding of 125I-labeled BMP-7 [3]: 8 µM
Binder: CCFINPETVCC (cyclized (disulfide bond between cysteines)) [H-2C]
